US8889621B2, “Inhibiting binding of FGF23 to the binary FGFR-Klotho complex for the treatment of hypophosphatemia” (New York University, priority 2009, dated 2014)

Test system: binary FGFR-Klotho complex
Experiment: Pull-down / co-precipitation of FGF23 proteins with FGFR-Klotho complex
Type: binding
Conditions: HEK293-Klotho cell lysate
Method: A pull-down assay may also be used to confirm the existence of a protein:protein interaction (i.e. FGF23^180-251 binding to the binary FGFR-Klotho complex). One aspect of the present invention utilizes pull-down assays. These assays involved subconfluent cultures of a HEK293 cell line ectopically expressing the FLAG-tagged membrane-spanning form of murine Klotho, which were harvested and lysed. Cell lysate was incubated with FGF23^28-251, FGF23^28-200, FGF23^28-179, FGF23^180-251, or protein sample buffer, and binary complexes of Klotho and endogenous FGFR were isolated from cell lysate using anti-FLAG M2 agarose beads. […]
In parallel, subconfluent HEK293-Klotho cells (Kurosu et al., “Regulation of Fibroblast Growth Factor-23 Signaling by Klotho,” J Biol Chem 281(10):6120-6123 (2006), which is hereby incorporated by reference in its entirety) were transfected with expression vectors for V5-tagged FGFR1c, FGFR3c, or FGFR4 (Kurosu et al., “Regulation of Fibroblast Growth Factor-23 Signaling by Klotho,” J Biol Chem 281(10):6120-6123 (2006), which is hereby incorporated by reference in its entirety) and binding of FGF23 proteins/peptides to Klotho-FGFR complexes isolated from cell lysate was analyzed. […]

binary FGFR-Klotho complex, sequence (O35082 35-1014, one chain of several): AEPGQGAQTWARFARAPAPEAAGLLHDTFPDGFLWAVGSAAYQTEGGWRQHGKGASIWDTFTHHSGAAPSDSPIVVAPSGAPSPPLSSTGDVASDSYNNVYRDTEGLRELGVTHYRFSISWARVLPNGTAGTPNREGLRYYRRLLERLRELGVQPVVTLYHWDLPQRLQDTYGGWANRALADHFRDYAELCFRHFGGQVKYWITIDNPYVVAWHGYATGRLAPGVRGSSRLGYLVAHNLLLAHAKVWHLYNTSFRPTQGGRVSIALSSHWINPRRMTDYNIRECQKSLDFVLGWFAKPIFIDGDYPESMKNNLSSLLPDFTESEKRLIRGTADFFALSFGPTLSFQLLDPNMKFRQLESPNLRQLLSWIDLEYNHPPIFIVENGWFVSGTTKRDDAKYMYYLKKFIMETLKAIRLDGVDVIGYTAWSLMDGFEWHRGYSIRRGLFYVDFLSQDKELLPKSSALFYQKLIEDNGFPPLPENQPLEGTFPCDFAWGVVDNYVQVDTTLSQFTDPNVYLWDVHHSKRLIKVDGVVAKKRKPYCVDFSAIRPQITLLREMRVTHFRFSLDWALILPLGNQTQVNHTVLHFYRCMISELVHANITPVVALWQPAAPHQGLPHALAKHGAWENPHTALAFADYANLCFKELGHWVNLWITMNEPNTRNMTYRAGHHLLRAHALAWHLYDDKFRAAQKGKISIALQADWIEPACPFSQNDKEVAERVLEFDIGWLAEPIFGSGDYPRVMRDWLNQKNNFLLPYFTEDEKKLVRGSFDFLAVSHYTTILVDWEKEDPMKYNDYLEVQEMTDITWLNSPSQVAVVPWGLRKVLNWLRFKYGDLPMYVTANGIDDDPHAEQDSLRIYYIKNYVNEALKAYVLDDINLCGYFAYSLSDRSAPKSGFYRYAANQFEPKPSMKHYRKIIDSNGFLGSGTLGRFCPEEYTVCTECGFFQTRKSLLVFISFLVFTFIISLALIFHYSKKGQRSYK

B1: FGF23^180-251: 72-amino acid C-terminal tail of human FGF23 (S180 to I251), expressed in E. coli (protein, listed as Homo sapiens)
chain: SAEDDSERDPLNVLKPRARMTPAPASCSQELPSAEDNSPMASDPLGVVRGGRVNTHAGGTGPEGCRPFAKFI
  co-precipitation with the binary FGFR-Klotho complex: co-precipitated with each of the three binary FGFR-Klotho complexes
